The values below come from the RNAGym collection of RNA variant scans (doi:10.7554/elife.90254).

Sequences and labels used below:
B1: LINE1-full (parent)
chain: UACGUAGGUGGUUUUCCCCUGAUAGUGCUAAGGGGGCCUGGAAGUUUGGACUGGGCAGAGCUCAACACAGCGUGGCAAAGUGGCUGUGGCUAGACUGCCUCUCUGGAUUCCUCGUCACUCAGCAGGGCAUCUCUGAGAGAAAUGCC

Variants of B1 are the subject of the data set. Put plainly: self-cleavage, relative activity (ratio to wild type); higher = more cleavage; in vitro, sequencing; the parent is a self-cleaving ribozyme.
A69G C118A: the self-cleavage was 0.51.

As to A69G U102A, the self-cleavage is 0.93. Take A69G U102C: the self-cleavage stood at 0.47.

As for A67U G88U, the self-cleavage was found to be 0.02. The result for A67G U96C reads 0. The result for A67G U96A reads 0.06.

With A69C U119A, the self-cleavage is 0.04. As for A67U U134A, the self-cleavage worked out at 0.08. In the case of A65U A138G, the self-cleavage was 0.24. For A69G G125U, the self-cleavage is 0.3. On to A69G C95U, for which the self-cleavage stood at 0.06. Turning to A69G C95A, the self-cleavage amounted to 0. As for A67G U112A, the self-cleavage worked out at 0.53. With A67G U112C the figure was 0.39; with A65U A92G, 0.03. Turning to A69G C103A, the self-cleavage came out at 0.43.

For A65U A78C, the self-cleavage was 0.27. The result for A67U U108A reads 0.16. As to A69G A141G, the self-cleavage was 0.44.

Take C68U C123G: the self-cleavage was 0.1.

Turning to A67U C146A, the self-cleavage was 0.14. With A67G G126A the figure was 0.58; with A67G C113U, 0.44; with A67G C113A, 0.45. Consider A67C U119C, for which the self-cleavage was 0.09. Regarding A67G U130C, the self-cleavage worked out at 0.65. With A67G U130A the figure was 0.54. For A65U U91G, the self-cleavage came to 0.06.

A65U U91C: the self-cleavage came out at 0.08. Take A67U U115C: the self-cleavage was 0.34. Regarding A67G C133A, the self-cleavage is 0.41. With A69U C101U the figure was 0.03; with A69G A142G, 0.5. The result for A69G A142U reads 0.35; that for C68U U81C, 0.18; that for C68U U81A, 0.18. Take C68U A117U: the self-cleavage is 0.25. The result for C68U A117G reads 0.12; that for A69U A78G, 0.04. For A67U C103A, the self-cleavage came to 0.15. The result for A69C G93A reads 0.01; that for A67U U119C, 0.19.

Take A67G U109C: the self-cleavage amounted to 0.16. With A67C A78U the figure was 0.07.

With A67U U102C, the self-cleavage is 0.1. Regarding A67U U102A, the self-cleavage worked out at 0.11. The result for A65U G97A reads 0.04; that for A67C U73C, 0.22. Take A67U G75A: the self-cleavage amounted to 0.09. With A67G G93A the figure was 0.02; with A67G G93U, 0.11. In the case of C66U U134C, the self-cleavage came out at 0.06. With A67C G82A the figure was 0.05; with A67G A79U, 0.73; with A67G A79C, 0.48. The result for C66U C111U reads 0.04.

Regarding C66U U109A, the self-cleavage was found to be 0.03. Turning to A67U U87C, the self-cleavage is 0.21. In the case of A65G U100A, the self-cleavage turned out to be 0.09. With A65G U100C the figure was 0.06; with A69G A117G, 0.5; with A69G A117U, 0.64.

Consider C68U U112C, for which the self-cleavage came to 0.06. The result for A67G C111A reads 0.58; that for A67G C111U, 0.54. With A67C C71A, the self-cleavage was found to be 0.02. Take C66U A124G: the self-cleavage amounted to 0.03. The result for A69C U104C reads 0.22; that for A69G C98U, 0.04. The result for A69G A136G reads 0.42. Consider A69G A136U, for which the self-cleavage amounted to 0.45. Regarding A67U U104C, the self-cleavage was 0.25. The result for A67U U104A reads 0.03; that for A69U A141G, 0.07. Turning to A67G A77U, the self-cleavage turned out to be 0.3. The result for C66U A142G reads 0.05; that for A69G G72A, 0.54; that for A69G U81G, 0. With A67U G105U, the self-cleavage worked out at 0.12.

In the case of A67U U85C, the self-cleavage stood at 0.01.

For A67G U104C, the self-cleavage is 0.96.

Regarding C66U U102A, the self-cleavage was determined as 0.06. As to A67C C110A, the self-cleavage worked out at 0.05. The result for A69U C146U reads 0.08; that for A67C A141G, 0.12. With A67G G137A the figure was 0.64; with A69G G82A, 0.68; with A69G U91A, 0.16. With A69U A79C the figure was 0.12; with A69U A79U, 0.08.

Consider A65U G127A, for which the self-cleavage is 0.68. As for A67U A140G, the self-cleavage was 0.09. As for A67U A140U, the self-cleavage is 0.08. With A69G A124G the figure was 0.32; with A67U C131A, 0.13; with A65U U108C, 0.4.

Regarding A67U A77U, the self-cleavage was 0.04.

Consider A67U A77G, for which the self-cleavage came out at 0.17. With A69G A129U the figure was 0.58; with A65U U81C, 0.19; with A67G A142G, 0.46. With A67G A142C the figure was 0.93; with C68U A77G, 0.24; with C66U U143C, 0.03.

In the case of A67G C68A, the self-cleavage was 0.05. With A69U A124C the figure was 0.02; with A65U U96C, 0.02; with A69C A138G, 0.16.

With A69G U108A, the self-cleavage turned out to be 0.07. Consider C68U A129G, for which the self-cleavage was 0.06. For A67G U119A, the self-cleavage stood at 0.31. For the variant A67G U119C, the self-cleavage was determined as 1.07. Turning to A67U A107G, the self-cleavage stood at 0. With C68U A142G the figure was 0.14. Take A69G U96A: the self-cleavage was 0.04. In the case of A69G U96C, the self-cleavage was found to be 0.16.

Turning to A69G A138G, the self-cleavage worked out at 0.56. In the case of A67G G125U, the self-cleavage is 0.39. With A69G C133A the figure was 0.47; with C66G A117G, 0.08. A67G G114A: the self-cleavage was found to be 0.38.

Consider A67G G114C, for which the self-cleavage was determined as 0.49. The result for A67C G72U reads 0.06; that for C66A A136G, 0.04; that for A67C A117C, 0.03. In the case of C68U U109A, the self-cleavage was determined as 0.21. The result for A67U U73C reads 0.18; that for A67C A138U, 0.03; that for A67U G74A, 0.08. For C68U A124U, the self-cleavage is 0.28.

As to A67G C120U, the self-cleavage came out at 0.45. The result for A69C A77U reads 0.09.

Regarding A69G A78U, the self-cleavage came out at 0.63. Turning to A67G A121G, the self-cleavage was 0.53. The result for A67G A121U reads 0.51.

Turning to A69G G88C, the self-cleavage worked out at 0.06. With C66U A138U the figure was 0.03; with A69C, 0.07. Consider A69U, for which the self-cleavage came to 0.06.

As for A69G, the self-cleavage was determined as 0.5. Take C68U A141G: the self-cleavage is 0.3. Turning to A69G A121C, the self-cleavage is 0.51. In the case of A69G A121U, the self-cleavage amounted to 0.62. A69G A121G: the self-cleavage amounted to 0.6. With A65G U132C the figure was 0.07; with A69U C131U, 0.03. With A69U C131A the figure was 0.07; with A67G A124U, 0.49.

Regarding A67U A121G, the self-cleavage amounted to 0.15. The result for A67U A121C reads 0.2. In the case of A67G U132C, the self-cleavage worked out at 0.62. Take A67G G122A: the self-cleavage came out at 0.54. With A67C U108C the figure was 0; with C66U U130C, 0.05. The result for A67G U100C reads 0.4; that for A67G U143G, 0.37; that for C66A A141G, 0.04.

In the case of A65U U100C, the self-cleavage worked out at 0.16. For the variant C66U U100C, the self-cleavage was 0.07.

For A65G U134A, the self-cleavage is 0.04.

A65U A140G: the self-cleavage was found to be 0.26. With A65U A140U the figure was 0.1.

For the variant A67U C128U, the self-cleavage worked out at 0.1. With A69G U109A the figure was 0.43. Consider A69U C120U, for which the self-cleavage amounted to 0.07. Turning to C68A U73C, the self-cleavage was determined as 0.05. For the variant A65U U119A, the self-cleavage is 0.21.
